According to patent publication US20230201308A1, “TREATMENT OF CORONAVIRUS INFECTION WITH […]” (Eiger Biopharmaceuticals, Inc., priority 2020, published 2023):
Where two headings read alike, the source gives them in different places.

Experiments:
[1] = system: SARS-CoV-2 (2019-nCoV/USA-WA1/2020); format: cell-based; settings: HAE pretreated basolaterally 24 hr
SARS-CoV-2 = test: Third trial (TOGETHER): virological assessment, quantitative real-time PCR of mid-turbinate swabs; format: in vivo, human; settings: for proportion of participants with a negative swab for SARS-CoV-2 RNA: Canadian cohort
[2] = Third trial (TOGETHER): treatment emergent adverse events and drug adherence; format: in vivo, human
Text: An adverse event (AE) is any adverse change from the participant's baseline (pre-treatment) condition, including intercurrent illness which occurs during the course of the trial, after the consent form has been signed, whether the event is considered related to treatment or not.
A serious adverse event (SAE) is any adverse event that at any dose: • results in death (grade 5 event) • is life-threatening (grade 4 event) • requires inpatient hospitalization or prolongation of existing hospitalization • results in persistent or significant disability or incapacity • is a congenital anomaly/birth defect
Study personnel collected outcome data via in-person, and via telephone or WhatsApp using video-teleconferencing on Days 1, 2, 3, 4, 5, 7, 10, 14, and 28. Adverse events were recorded at the time they occurred. All serious and non-serious adverse events were reported to study personnel as per local regulatory requirements. Reportable adverse events included serious adverse events, adverse events resulting in study medication discontinuation, and adverse events assessed as possibly related to study medication.

[3] = Day 7, high baseline viral load
[4] = ITT preliminary, n=916 vs placebo 1020
[5] = Treated within 3 days of symptom onset, n=539 vs placebo 586
[6] = Treated within 5 days of symptom onset, n=800 vs placebo 879
[7] = Unvaccinated population, n=143 vs placebo 176

B1: pegylated interferon lambda-1a (protein)
chain: MKPTTTGKGCHIGRFKSLSPQELASFKKARDALEESLKLKNWSCSSPVFPGNWDLRLLQVRERPVALEAELALTLKVLEAAAGPALEDVLDQPLHTLHHILSQLQACIQPQPTAGPRPRGRLHHWLHRLQEAPKKESAGCLEASVTFNLFRLLTRDLKYVADGNLSLRTSTHPEST
modifications: PEG
notes: 180 mcg subcutaneous injection
- SARS-CoV-2 infectious virus production (titer of apical washes, plaque assay) ([1]; […]): reducing viral load in infected cells
- SARS-CoV-2 infectious virus production (titer of apical washes, plaque assay) ([1]; […];, listed as peg-IFN-λ1): potent dose dependent reduction
- proportion of participants with a negative swab for SARS-CoV-2 RNA (SARS-CoV-2; Day 0 post injection): 0
- proportion of participants with a negative swab for SARS-CoV-2 RNA (SARS-CoV-2; Day 1 post injection): 0
- proportion of participants with a negative swab for SARS-CoV-2 RNA (SARS-CoV-2; Day 2 post injection): 7
- proportion of participants with a negative swab for SARS-CoV-2 RNA (SARS-CoV-2; Day 3 post injection): 27
- proportion of participants with a negative swab for SARS-CoV-2 RNA (SARS-CoV-2; Day 4 post injection): 40
- proportion of participants with a negative swab for SARS-CoV-2 RNA (SARS-CoV-2; Day 5 post injection): 60
- proportion of participants with a negative swab for SARS-CoV-2 RNA (SARS-CoV-2; Day 6 post injection): 64
- odds ratio, below the limit of quantitation vs placebo (SARS-CoV-2; [3]): 2.13
- patients below the limit of quantitation (SARS-CoV-2; [3]): 50.5%
- treatment effect on viral load (Beta) (SARS-CoV-2; Day 7, high baseline viral load (≥192,841,278 copies/mL)): −1.01
- median viral load decline from baseline (SARS-CoV-2; Day 7, hospitalized patients): 7.19 log copies/mL
- proportion of participants with a negative swab for SARS-CoV-2 RNA (SARS-CoV-2; Day 7 post injection): 86
- proportion of participants with a negative swab for SARS-CoV-2 RNA (SARS-CoV-2; Day 8 post injection): 92
- proportion of participants with a negative swab for SARS-CoV-2 RNA (SARS-CoV-2; Day 9 post injection): 85
- proportion of participants with a negative swab for SARS-CoV-2 RNA (SARS-CoV-2; Day 10 post injection): 92
- proportion of participants with a negative swab for SARS-CoV-2 RNA (SARS-CoV-2; Day 11 post injection): 100
- proportion of participants with a negative swab for SARS-CoV-2 RNA (SARS-CoV-2; Day 12 post injection): 100
- proportion of participants with a negative swab for SARS-CoV-2 RNA (SARS-CoV-2; Day 13 post injection): 100
- proportion of participants with a negative swab for SARS-CoV-2 RNA (SARS-CoV-2; Day 14 post injection): 100
- median log decline in viral load (SARS-CoV-2; by Day 7, high baseline viral load): 8.29
- viral loads by Day 7 (SARS-CoV-2; final analysis): significantly lowered
- treatment effect on viral load (Beta) (SARS-CoV-2; low baseline viral load group): 0.22
- TEAE, Grade 1, % of patients [2, 4]: (1.7%)
- TEAE, Grade 1, RR (95% CrI) vs placebo [2, 4]: 0.75 (0.40, 1.38)
- TEAE, Grade 2, % of patients [2, 4]: (9%)
- TEAE, Grade 2, RR (95% CrI) vs placebo [2, 4]: 1.00 (0.75, 1.33)
- TEAE, Grade 3, % of patients [2, 4]: (2.2%)
- TEAE, Grade 3, RR (95% CrI) vs placebo [2, 4]: 0.70 (0.40, 1.20)
- TEAE, Grade 4, % of patients [2, 4]: (0.8%)
- TEAE, Grade 4, RR (95% CrI) vs placebo [2, 4]: 1.11 (0.41, 3.05)
- TEAE, Grade 5, % of patients [2, 4]: (0.3%)
- TEAE, Grade 5, RR (95% CrI) vs placebo [2, 4]: 0.88 (0.21, 3.40)
- Number experiencing TEAEs: % ([2]; N = 931): (14.7%)
- Number experiencing TEAEs: n ([2]; N = 931): 137
- Number experiencing possibly treatment-related TEAS: % ([2]; N = 931): (0.4%)
- Number experiencing possibly treatment-related TEAS: n ([2]; N = 931): 4
- Number experiencing serious TEAEs: % ([2]; N = 931): (3.4%)
- Number experiencing serious TEAEs: n ([2]; N = 931): 32
- TEAE, Grade 1: % ([2]; N = 931): (2.9%)
- TEAE, Grade 1: n ([2]; N = 931): 27
- TEAE, Grade 2: % ([2]; N = 931): (9.2%)
- TEAE, Grade 2: n ([2]; N = 931): 86
- TEAE, Grade 3: % ([2]; N = 931): (2.3%)
- TEAE, Grade 3: n ([2]; N = 931): 21
- TEAE, Grade 4: % ([2]; N = 931): (0.9%)
- TEAE, Grade 4: n ([2]; N = 931): 8
- TEAE, Grade 5: % ([2]; N = 931): (0.4%)
- TEAE, Grade 5: n ([2]; N = 931): 4
- Number experiencing TEAEs: Probability of Superiority ([2]; N = 931 vs placebo N = 1018): 88.5
- Number experiencing TEAEs: RR (95% CrI), estimated treatment effect ([2]; N = 931 vs placebo N = 1018): 0.88 (0.71, 1.08)
- Number experiencing possibly treatment-related TEAS: Probability of Superiority ([2]; N = 931 vs placebo N = 1018): 82.8
- Number experiencing possibly treatment-related TEAS: RR (95% CrI), estimated treatment effect ([2]; N = 931 vs placebo N = 1018): 0.59 (0.18, 1.74)
- Number experiencing serious TEAEs: Probability of Superiority ([2]; N = 931 vs placebo N = 1018): 93.6
- Number experiencing serious TEAEs: RR (95% CrI), estimated treatment effect ([2]; N = 931 vs placebo N = 1018): 0.72 (0.46, 1.10)
- TEAE, Grade 1: Probability of Superiority ([2]; N = 931 vs placebo N = 1018): 84.5
- TEAE, Grade 1: RR (95% CrI), estimated treatment effect ([2]; N = 931 vs placebo N = 1018): 0.78 (0.48, 1.26)
- TEAE, Grade 2: Probability of Superiority ([2]; N = 931 vs placebo N = 1018): 64.0
- TEAE, Grade 2: RR (95% CrI), estimated treatment effect ([2]; N = 931 vs placebo N = 1018): 0.95 (0.72, 1.25)
- TEAE, Grade 3: Probability of Superiority ([2]; N = 931 vs placebo N = 1018): 93.9
- TEAE, Grade 3: RR (95% CrI), estimated treatment effect ([2]; N = 931 vs placebo N = 1018): 0.66 (0.39, 1.11)
- TEAE, Grade 4: Probability of Superiority ([2]; N = 931 vs placebo N = 1018): 42.6
- TEAE, Grade 4: RR (95% CrI), estimated treatment effect ([2]; N = 931 vs placebo N = 1018): 1.09 (0.42, 2.86)
- TEAE, Grade 5: Probability of Superiority ([2]; N = 931 vs placebo N = 1018): 67.5
- TEAE, Grade 5: RR (95% CrI), estimated treatment effect ([2]; N = 931 vs placebo N = 1018): 0.76 (0.22, 2.46)
- TEAE, Grade 1, % of patients [2, 5]: (0.9%)
- TEAE, Grade 1, RR (95% CrI) vs placebo [2, 5]: 0.53 (0.18, 1.38)
- TEAE, Grade 2, % of patients [2, 5]: (9.8%)
- TEAE, Grade 2, RR (95% CrI) vs placebo [2, 5]: 1.13 (0.78, 1.63)
- TEAE, Grade 3, % of patients [2, 5]: (1.3%)
- TEAE, Grade 3, RR (95% CrI) vs placebo [2, 5]: 0.47 (0.19, 1.05)
- TEAE, Grade 4, % of patients [2, 5]: (0.7%)
- TEAE, Grade 4, RR (95% CrI) vs placebo [2, 5]: 3.01 (0.61, 23.67)
- TEAE, Grade 5, % of patients [2, 5]: (0%)
- TEAE, Grade 5, RR (95% CrI) vs placebo [2, 5]: 0.21 (0.01, 1.64)
- TEAE, Grade 1, % of patients [2, 6]: (1.8%)
- TEAE, Grade 1, RR (95% CrI) vs placebo [2, 6]: 0.78 (0.40, 1.51)
- TEAE, Grade 2, % of patients [2, 6]: (8.9%)
- TEAE, Grade 2, RR (95% CrI) vs placebo [2, 6]: 0.95 (0.70, 1.29)
- TEAE, Grade 3, % of patients [2, 6]: (1.9%)
- TEAE, Grade 3, RR (95% CrI) vs placebo [2, 6]: 0.56 (0.30, 1.01)
- TEAE, Grade 4, % of patients [2, 6]: (0.8%)
- TEAE, Grade 4, RR (95% CrI) vs placebo [2, 6]: 1.99 (0.58, 7.88)
- TEAE, Grade 5, % of patients [2, 6]: (0.4%)
- TEAE, Grade 5, RR (95% CrI) vs placebo [2, 6]: 0.86 (0.20, 3.40)
- TEAE, Grade 1, % of patients [2, 7]: 5.6%
- TEAE, Grade 1, RR (95% CrI) vs placebo [2, 7]: 1.23 (0.49, 3.08)
- TEAE, Grade 2, % of patients [2, 7]: 11.9%
- TEAE, Grade 2, RR (95% CrI) vs placebo [2, 7]: 1.16 (0.63, 2.16)
- TEAE, Grade 3, % of patients [2, 7]: 3.5%
- TEAE, Grade 3, RR (95% CrI) vs placebo [2, 7]: 0.60 (0.21, 1.53)
- TEAE, Grade 4, % of patients [2, 7]: 1.4%
- TEAE, Grade 4, RR (95% CrI) vs placebo [2, 7]: 0.58 (0.12, 2.22)
- TEAE, Grade 5, % of patients [2, 7]: 0 (0%)
- TEAE, Grade 5, RR (95% CrI) vs placebo [2, 7]: 1.21 (0.03, 47.34)
- treatment emergent adverse events compared to placebo ([2]; final analysis, listed as peginterferon lambda): no important differences
- Premature discontinuation, Request by participant to terminate study treatment, % ([2]; n=916): (0.0%)
- Premature discontinuation, reason Hospitalization, % ([2]; n=916): (0.0%)
- Premature discontinuation, reason Non-compliance with Study Therapy, % ([2]; n=916): (0.0%)
- Premature discontinuation, reason Other, % ([2]; n=916): (0.0%)
- Prematurely discontinued study drug, % ([2]; n=916, within 28 days of randomization): (0.0%)
- incidence of any adverse event compared with placebo ([2]; preliminary ITT): indistinguishable
